In patent CN114478784A (SHAANXI PULSE ELEMENT BIOTECHNOLOGY LTD COMPANY, dated 2022):
Values belong to the binder of their own block, whether it stands above or below them.

How the values were obtained:
[1] = molecular target: T1, ENO2-GST (human ENO2 expressed from pGEX 4t-1, GST-purified) (human, UniProt P09104 1-434); test: ELISA screening of hybridoma supernatants on coated ENO2-GST (100 ng/well), three rounds of subcloning
T1 construct: Expressed in E. coli BL21(DE3) and used to coat the ELISA plates; also called pGEX 4t-1载体表达的ENO2; ENO2抗原; not shown: GST tag of vector pGEX 4t-1

[2] = molecular target: T2, ENO2 with C-terminal flag tag (ENO2flag-pcDNA3.1, expressed in transfected cells, lysate) (UniProt P09104 2-434); test: Western blot, lysate of cells transfected with ENO2flag-pcDNA3.1, hybridoma supernatant as primary antibody
T2 construct: Denatured cell lysate on SDS-PAGE / PVDF membrane (Western blot); also called ENO2抗原; not shown: C-terminal flag tag

[3] = molecular target: 纯化的ENO2蛋白 (purified ENO2 protein coated in Example 7) (UniProt P09104 1-434, limits assumed); test: ELISA, ENO2 coated at 100 ng/well, 293T supernatant, HRP anti-heavy-chain IgG / anti-kappa secondary, OD450
纯化的ENO2蛋白 (purified ENO2 protein coated in Example 7), sequence (P09104 whole entry): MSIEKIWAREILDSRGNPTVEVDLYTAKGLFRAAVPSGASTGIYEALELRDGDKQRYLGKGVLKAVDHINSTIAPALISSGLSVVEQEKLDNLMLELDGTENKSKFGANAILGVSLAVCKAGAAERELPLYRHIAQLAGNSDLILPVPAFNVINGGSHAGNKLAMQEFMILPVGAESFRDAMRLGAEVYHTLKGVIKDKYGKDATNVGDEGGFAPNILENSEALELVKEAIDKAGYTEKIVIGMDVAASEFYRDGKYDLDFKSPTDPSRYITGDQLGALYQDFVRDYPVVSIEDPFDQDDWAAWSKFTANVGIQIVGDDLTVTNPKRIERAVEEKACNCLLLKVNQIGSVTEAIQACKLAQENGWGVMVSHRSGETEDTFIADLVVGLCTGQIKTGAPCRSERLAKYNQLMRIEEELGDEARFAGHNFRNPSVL

T1 sequence (P09104 whole entry): as above
T2 sequence (P09104 2-434 limits assumed): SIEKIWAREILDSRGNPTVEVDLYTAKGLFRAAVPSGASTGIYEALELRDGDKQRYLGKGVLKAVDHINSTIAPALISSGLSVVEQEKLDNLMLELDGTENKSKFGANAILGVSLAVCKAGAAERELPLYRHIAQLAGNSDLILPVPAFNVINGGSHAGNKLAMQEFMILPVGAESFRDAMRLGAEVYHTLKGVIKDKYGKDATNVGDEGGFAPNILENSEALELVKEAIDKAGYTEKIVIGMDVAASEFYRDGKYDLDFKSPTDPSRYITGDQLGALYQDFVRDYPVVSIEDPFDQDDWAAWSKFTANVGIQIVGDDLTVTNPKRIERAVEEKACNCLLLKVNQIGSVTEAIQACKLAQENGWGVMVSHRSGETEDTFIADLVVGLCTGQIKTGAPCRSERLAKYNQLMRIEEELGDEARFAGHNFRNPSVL

binding result [1]: binds
binding result [2]: binds
B1: ENO2单克隆抗体1C5 (from hybridoma) (antibody, V domains shown)
VH: EVKLVESGGDLVQPGGSLRLSCATSGFTFTDYYMIWVRQPPGKALEWLGFIRNKANGYTTQYNASVKGRFTISRDNSQSILYLQMNTLRPEDSATYYCVRDRRGTTFAYWGQGTLVTVSA
VL: QAVVTQESALTTSPGETVTLTCRSNTGAVTTSNYANWVQEKPDHLFTGLIGGTYNRAPGVPARFSGSLIGDKAALTITGAQTEDEAIYFCSLWYSNHWVFGGGTKLTVL
notes: It was used as hybridoma culture supernatant in the assays; also called 1C5单克隆抗体; 杂交瘤细胞上清

binding result [3]: no binding
B2: 1C5mk alone (recombinant 1C5 light chain, transfected without the heavy chain) (other)
light: QAVVTQESALTTSPGETVTLTCRSNTGAVTTSNYANWVQEKPDHLFTGLIGGTYNRAPGVPARFSGSLIGDKAALTITGAQTEDEAIYFCSLWYSNHWVFGGGTKLTVLRADAAPTVSIFPPSSEQLTSGGASVVCFLNNFYPKDINVKWKIDGSERQNGVLNSWTDQDSKDSTYSMSSTLTLTKDEYERHNSYTCEATHKTSTSPIVKSFNRNEC
notes: Tested as supernatant of 293T cells transfected with the light chain plasmid only; also called 轻链1C5mk
